Source: patent US20100261252A1

Biological target: human IgA1 (human) (UniProt P01876)
Assay: cell-based or functional assay

Chain of UniProt P01876 (P01876 other isoform, or with tags, fused parts or gaps): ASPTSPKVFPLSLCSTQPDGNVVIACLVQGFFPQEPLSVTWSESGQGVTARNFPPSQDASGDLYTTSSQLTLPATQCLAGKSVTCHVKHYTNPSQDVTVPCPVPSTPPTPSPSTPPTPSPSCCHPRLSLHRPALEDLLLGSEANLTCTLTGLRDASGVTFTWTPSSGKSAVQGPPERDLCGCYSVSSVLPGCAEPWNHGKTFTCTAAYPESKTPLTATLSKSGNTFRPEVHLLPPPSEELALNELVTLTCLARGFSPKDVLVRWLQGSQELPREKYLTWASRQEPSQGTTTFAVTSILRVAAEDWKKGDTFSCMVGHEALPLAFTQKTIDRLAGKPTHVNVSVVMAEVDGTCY

## C-terminal His-tagged H. influenzae IgA1 protease (proteolytic protease domain, lacking the α protein and β-core domains) (from UniProt P44969 26-1014) (enzyme)
  human IgA1 cleavage activity of purified refolded IgA1 protease (Experion automated electrophoresis) (ng IgA1/uL/min/ng protease): 50
